Experimental data taken from the supplement of paper PMC10567573.

B1: CDC34 (parent)
chain: GGYFKARLKFPIDYPYSPPAFRFL
B2: FAM9B (parent)
chain: EDLTAKRKRMKMDKTCSKTKNKSK

Variants of: B1
Assay: protein stability index of a GFP-peptide fusion (GPS, HEK-293T) (PSI 1-6); higher = more stable
Details: c terminus: a fixed tail appended
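Also: lentivirally expressed fusions sorted by FACS into six bins by GFP to DsRed ratio, PSI derived from sequencing read proportions per bin multiplied by bin number.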

Protein stability index: each site, then its substitutions
I12: M 1.39; N 2.22; R 1.7; S 3.06; V 1.8; W 2.12; Y 3.17
D13: A 3.56; C 2.51; E 1.97; F 3.1; G 4.23; H 3.16; I 3.04; K 3.03; L 3.38; M 1.68; N 2.64; Q 2.73; R 3.03; S 2.34; T 2.82; V 3.06; W 2.7
Y14: C 2.57; D 3.03; E 2.06; G 1.88; I 2.16; K 2.75; L 2.75; M 2.8; N 2.47; Q 1.82; R 2.09; S 4.54; V 2.7
P15: A 3.19; C 3.05; D 3.29; E 2.84; F 3.14; G 2.62; H 3.92; I 2.75; L 2.92; M 3.04; N 2.31; Q 2.06; S 3.76; T 2.51; V 2.21; W 2.9; Y 2.56
Y16: A 2.38; C 2.73; D 1.57; E 2.23; F 2.86; G 2.83; H 3.2; I 3.09; K 3.31; L 2.18; M 1.99; N 2.71; R 2.6; S 2.6; T 2.81; V 3.55; W 2.43
S17: D 2.77; E 3.71; F 2.93; G 2.85; H 3.25; I 3.04; K 3.04; M 2.9; N 3.85; Q 2.58; R 3.12; V 4.24; W 2.82; Y 2.44
P18: A 2.96; C 3.4; D 2.34; E 2.34; F 2.42; G 2.4; H 2.33; K 3.31; L 2.54; M 2.19; N 2.51; Q 3.79; S 3.15; W 2.38; Y 2.48
P19: A 2.29; C 3.03; D 2.21; E 2.21; F 2.96; H 2.67; I 2.56; K 2.99; L 3.41; M 3.23; N 3.27; Q 2.55; R 3.69; S 2.64; T 3.29; V 2.35; W 3.02; Y 4.32
A20: C 1.71; D 2.18; E 3.68; F 3.14; G 2.29; H 3.05; I 3.02; K 3.03; L 2.52; M 3.57; Q 2.41; R 3.03; S 2.54; T 2.95; V 2.96; W 2.98
F21: A 2.57; C 2.55; D 2.34; E 1.65; G 3.19; I 2.48; K 2.16; M 2.15; N 1.88; Q 3.14; R 2.82; S 1.54; T 2.67; V 3.33; W 3.02; Y 1.53
R22: A 4.99; C 4.57; D 3.74; E 2.58; F 3.63; G 2.78; H 2.87; I 2.74; K 2.74; L 2.97; M 3; N 2.73; P 2.62; Q 2.65; S 2.8; T 2.52; V 4.1; Y 2.7
F23: A 2.82; D 2.71; E 2.19; G 1.09; H 4.27; I 2.08; K 2.8; L 1.54; M 2.48; N 2.95; P 3.15; Q 1.48; R 2.42; S 2.95; T 2.74; V 3.6; W 1.43; Y 1.26
L24: A 3.55; D 2.33; E 1.76; F 2.89; G 2.44; K 3.77; M 2.76; N 3.21; Q 2.95; R 3.94; T 3.35; V 3.43; W 2.05; Y 2.4

Variants of: B2
Assay: as above
Details: c terminus: a fixed tail appended

Protein stability index: each site, then its substitutions
E1: A 4.77; C 3.08; D 5.32; F 4.53; G 4.86; H 4.87; I 4.08; K 4.89; L 4.38; M 4.15; N 5.29; P 4.9; Q 4.99; R 4.64; S 5.16; T 4.91; V 4.96; W 3.89; Y 3.72
D2: A 5.42; C 4.11; E 5.3; F 3.65; G 5.21; H 5.01; I 4.16; K 4.9; L 4.08; M 4.44; N 4.63; P 5.51; Q 5.04; R 4.43; S 4.63; T 4.92; V 4.86; W 3.49; Y 3.69
L3: A 4.91; C 5.09; D 5.5; E 5.77; F 4.98; G 5.66; H 5.43; K 5.4; M 5.13; N 5.15; P 5.39; Q 5.51; R 5.17; S 4.99; T 5.33; V 5.63; W 4.6; Y 5.23
T4: A 5.25; C 4.52; D 5.5; E 5; F 4.72; G 5.14; H 5.29; I 4.58; K 5.54; L 4.6; M 4.45; N 4.8; P 4.96; Q 4.7; R 4.64; S 4.74; V 5.02; W 4.38; Y 4.21
A5: C 4.05; D 5.08; F 4.42; G 5.47; H 5.05; K 4.15; L 5.37; M 5.2; N 4.33; P 4.92; Q 4.71; R 5.23; S 5.5; T 4.51; W 5.3; Y 5.13
K6: A 4.87; C 4.78; D 5.33; E 5.7; F 4.42; G 5.69; H 5.37; I 5.1; L 4.85; M 4.67; N 4.85; P 5.59; Q 5.12; R 5.33; S 5.26; T 4.68; V 4.65; W 4.29; Y 5.19
R7: A 5.09; C 5.26; D 5.41; E 5.45; F 4.69; G 5.54; H 4.95; I 4.82; K 5.16; L 4.87; M 4.75; N 4.93; P 5.27; Q 5.32; S 5.3; T 5.46; V 4.87; W 4.33; Y 5.11
K8: A 4.94; C 5.09; D 5.29; E 4.99; F 4.58
